Test results as given in patent publication US20200024330A1.

Legend:
Experiment in all cases: cell-based or functional assay
[1] = target: HIV-1 Env of isolate MGRM-G-009 (HIV-1)
[2] = target: HIV-1 92UG024 envelope glycoprotein (Env) on pseudovirus (HIV-1)
[3] = target: HIV-1 Env of isolate MGRM-G-017 (HIV-1)
[4] = target: HIV-1 Env of isolate MGRM-G-013 (HIV-1)
[5] = target: HIV-1 92TH021 envelope glycoprotein (Env) on pseudovirus (HIV-1)
[6] = target: HIV-1 Env of isolate MGRM-G-015 (HIV-1)
[7] = target: HIV-1 Env of isolate MGRM-G-011 (HIV-1)
[8] = target: HIV-1 Env of isolate MGRM-G-004 (HIV-1)
[9] = target: HIV-1 Env of isolate MGRM-AE-005 (HIV-1)
[10] = target: HIV-1 Env of isolate MGRM-G-006 (HIV-1)
[11] = target: HIV-1 Env of isolate MGRM-AE-006 (HIV-1)
[12] = target: HIV-1 Env of isolate MGRM-AE-004 (HIV-1)
[13] = target: aMLV envelope (negative control pseudovirus)
[14] = target: HIV-1 NL43 envelope glycoprotein (Env) on pseudovirus (HIV-1)
[15] = target: HIV-1 Env of isolate MG RM-D-003 (subtype D) (HIV-1)
[16] = target: HIV-1 Env of isolate MGRM-G-014 (HIV-1)
[17] = target: HIV-1 Env of isolate MGRM-G-001 (HIV-1)
[18] = target: HIV-1 TRJ04551.58 Env (pseudovirus) (HIV-1)
[19] = target: HIV-1 92BR020 envelope glycoprotein (Env) on pseudovirus (HIV-1)
[20] = target: HIV-1 Env of isolate MGRM-G-019 (HIV-1)
[21] = target: HIV-1 Env of isolate MGRM-AE-008 (HIV-1)
[22] = target: HIV-1 Env of isolate MGRM-G-016 (HIV-1)
[23] = target: HIV-1 Env of isolate MGRM-G-027 (HIV-1)
[24] = target: HIV-1 Env of isolate MGRM-AE-007 (HIV-1)
[25] = target: HIV-1 92RW020 envelope glycoprotein (Env) on pseudovirus (HIV-1)

For 4877_D15 (PGT-122) (antibody), the IC50, pseudovirus neutralization [1] was 0.514 µg/mL, the IC50 (ug/ml), neutralizing activity [2] was greater than 10 µg/mL and the IC50, pseudovirus neutralization [3] was 0.032 µg/mL. The IC50, pseudovirus neutralization [4] was 3.45 µg/mL, the IC50 (ug/ml), neutralizing activity [5] was greater than 10 µg/mL and the IC50, pseudovirus neutralization [6] was greater than 50 µg/mL. For the same substance, the IC50, pseudovirus neutralization [7] was 31.3 µg/mL, the IC50, pseudovirus neutralization [8] was 2.15 µg/mL and the neutralization IC50 [9] was greater than 50 µg/mL. It also gave an IC50, pseudovirus neutralization [10] greater than 50 µg/mL, a neutralization IC50 [11] greater than 50 µg/mL and a neutralization IC50 [12] greater than 50 µg/mL. For the same substance, the IC50, pseudovirus neutralization [13] was greater than 50 µg/mL, the Neutralization by PGT-122, IC50 [13] was greater than 10 µg/mL and the Neutralization by PGT-122, IC80 [13] was greater than 10 µg/mL. For the same substance, the Neutralization by PGT-122, IC90 [13] was greater than 10 µg/mL, the Neutralization by PGT-122, IC95 [13] was greater than 10 µg/mL and the IC50 (ug/ml), neutralizing activity [14] was greater than 10 µg/mL. For the same substance, the IC50 (µg/mL), pseudovirus neutralization [15] was greater than 50 µg/mL, the IC50, pseudovirus neutralization [16] was 8 ng/mL and the IC50, pseudovirus neutralization [17] was 0.005 µg/mL. For the same substance, the IC50, pseudovirus neutralization [18] was greater than 50 µg/mL, the IC50 (ug/ml), neutralizing activity [19] was 0.0337 µg/mL and the IC50, pseudovirus neutralization [20] was 0.016 µg/mL. For the same substance, the neutralization IC50 [21] was greater than 50 µg/mL, the IC50, pseudovirus neutralization [22] was greater than 50 µg/mL and the IC50, pseudovirus neutralization [23] was 0.606 µg/mL. For the same substance, the neutralization IC50 [24] was greater than 50 µg/mL and the IC50 (ug/ml), neutralizing activity [25] was 0.0072 µg/mL.

In the case of 5123_A06 (PGT-125) (antibody), the IC50, pseudovirus neutralization [1] is reported as greater than 50 µg/mL, the IC50 (ug/ml), neutralizing activity [2] is reported as greater than 10 µg/mL and the neutralization IC50 [2] is reported as greater than 10 µg/mL. The neutralization IC80 [2] was greater than 10 µg/mL, the neutralization IC90 [2] was greater than 10 µg/mL and the neutralization IC95 [2] was greater than 10 µg/mL. For the same substance, the IC50, pseudovirus neutralization [3] was greater than 50 µg/mL, the IC50, pseudovirus neutralization [4] was greater than 50 µg/mL and the IC50 (ug/ml), neutralizing activity [5] was 0.0066 µg/mL. It also gave a neutralization IC50 [5] of 6.6 ng/mL, a neutralization IC80 [5] of 0.0292 µg/mL and a neutralization IC90 [5] of 0.0701 µg/mL. It also gave a neutralization IC95 [5] of 0.157 µg/mL, an IC50, pseudovirus neutralization [6] greater than 50 µg/mL and an IC50, pseudovirus neutralization [7] greater than 50 µg/mL. The IC50, pseudovirus neutralization [8] was greater than 50 µg/mL, the neutralization IC50 [9] was 0.01 µg/mL and the IC50, pseudovirus neutralization [10] was greater than 50 µg/mL. It also gave a neutralization IC50 [11] of 0.009 µg/mL, a neutralization IC50 [12] greater than 50 µg/mL and an IC50, pseudovirus neutralization [13] greater than 50 µg/mL. For the same substance, the IC50 (ug/ml), neutralizing activity [14] was greater than 10 µg/mL, the neutralization IC50 [14] was greater than 10 µg/mL and the neutralization IC80 [14] was greater than 10 µg/mL. The neutralization IC90 [14] was greater than 10 µg/mL, the neutralization IC95 [14] was greater than 10 µg/mL and the IC50 (µg/mL), pseudovirus neutralization [15] was 0.065 µg/mL. It also gave an IC50, pseudovirus neutralization [16] of 7 ng/mL, an IC50, pseudovirus neutralization [17] of 0.033 µg/mL and an IC50, pseudovirus neutralization [18] of 0.019 µg/mL. It also gave an IC50 (ug/ml), neutralizing activity [19] of 0.0214 µg/mL, a neutralization IC50 [19] of 0.0214 µg/mL and a neutralization IC80 [19] of 0.0738 µg/mL. The neutralization IC90 [19] was 0.156 µg/mL, the neutralization IC95 [19] was 0.323 µg/mL and the IC50, pseudovirus neutralization [20] was greater than 50 µg/mL. It also gave a neutralization IC50 [21] greater than 50 µg/mL, an IC50, pseudovirus neutralization [22] greater than 50 µg/mL and an IC50, pseudovirus neutralization [23] of 34.4 µg/mL. For the same substance, the neutralization IC50 [24] was 0.876 µg/mL, the IC50 (ug/ml), neutralizing activity [25] was 0.0028 µg/mL and the neutralization IC50 [25] was 2.8 ng/mL. For the same substance, the neutralization IC80 [25] was 0.011 µg/mL, the neutralization IC90 [25] was 0.0248 µg/mL and the neutralization IC95 [25] was 0.0526 µg/mL.

Substance 5141_B17 (PGT-126) (antibody) has an IC50, pseudovirus neutralization [1] greater than 50 µg/mL, an IC50 (ug/ml), neutralizing activity [2] greater than 10 µg/mL and an IC50, pseudovirus neutralization [3] greater than 50 µg/mL. For the same substance, the IC50, pseudovirus neutralization [4] was 48.8 µg/mL, the IC50 (ug/ml), neutralizing activity [5] was 0.115 µg/mL and the IC50, pseudovirus neutralization [6] was greater than 50 µg/mL. For the same substance, the IC50, pseudovirus neutralization [7] was 7.32 µg/mL, the IC50, pseudovirus neutralization [8] was greater than 50 µg/mL and the neutralization IC50 [9] was 0.324 µg/mL. It also gave an IC50, pseudovirus neutralization [10] greater than 50 µg/mL, a neutralization IC50 [11] of 17.3 µg/mL and a neutralization IC50 [12] greater than 50 µg/mL. For the same substance, the IC50 [13] was greater than 10 µg/mL, the IC50, pseudovirus neutralization [13] was greater than 50 µg/mL and the IC80 [13] was greater than 10 µg/mL. It also gave an IC90 [13] greater than 10 µg/mL, an IC95 [13] greater than 10 µg/mL and an IC50 (ug/ml), neutralizing activity [14] greater than 10 µg/mL. The IC50 (µg/mL), pseudovirus neutralization [15] was 0.021 µg/mL, the IC50, pseudovirus neutralization [16] was 9 ng/mL and the IC50, pseudovirus neutralization [17] was 0.038 µg/mL. For the same substance, the IC50, pseudovirus neutralization [18] was 0.025 µg/mL, the IC50 (ug/ml), neutralizing activity [19] was 0.0163 µg/mL and the IC50, pseudovirus neutralization [20] was 0.018 µg/mL. The neutralization IC50 [21] was greater than 50 µg/mL, the IC50, pseudovirus neutralization [22] was greater than 50 µg/mL and the IC50, pseudovirus neutralization [23] was 0.875 µg/mL. For the same substance, the neutralization IC50 [24] was greater than 50 µg/mL and the IC50 (ug/ml), neutralizing activity [25] was 0.0046 µg/mL.
